Experimental data: patent US20030211992A1 (published 2003)

What was measured:
[1] = molecular target: T1, recombinant human IGFBP-3 (human, UniProt P17936 28-291); experiment: competitive phage ELISA
T1 construct: biotinylated and held on a streptavidin chip in the ALS experiment

human IGFBP-1 = molecular target: T2, human IGFBP-1 (human, UniProt P08833 26-259); experiment: competitive phage ELISA
T2 construct: biotinylated in the ELISA formats; amine-coupled to the chip in peptide kinetics
T2 sequence (looked up): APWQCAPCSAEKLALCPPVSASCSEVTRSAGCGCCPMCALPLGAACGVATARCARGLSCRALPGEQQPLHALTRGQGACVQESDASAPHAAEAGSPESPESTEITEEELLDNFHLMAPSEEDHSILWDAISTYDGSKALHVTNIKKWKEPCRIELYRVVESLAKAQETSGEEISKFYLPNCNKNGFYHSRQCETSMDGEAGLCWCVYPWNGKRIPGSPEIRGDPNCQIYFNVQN

T1 sequence (P17936 28-291 limits assumed): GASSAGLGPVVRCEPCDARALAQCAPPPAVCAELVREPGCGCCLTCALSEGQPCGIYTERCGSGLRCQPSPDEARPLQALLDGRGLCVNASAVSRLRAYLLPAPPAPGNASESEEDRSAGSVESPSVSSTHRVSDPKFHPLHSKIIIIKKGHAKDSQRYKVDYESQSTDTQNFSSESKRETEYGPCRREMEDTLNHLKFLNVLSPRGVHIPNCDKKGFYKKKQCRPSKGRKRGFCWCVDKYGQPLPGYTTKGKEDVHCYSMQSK

Substance	IC50 [1] [nM]	relative IC50 (mut/G1S-A70V) [1]	IC50 (human IGFBP-1) [nM]	relative IC50 (mut/G1S-A70V) (human IGFBP-1)
D45A IGF-1 (G1S-A70V background) on phage (from UniProt P69168 267-424) (ligand)	0.69	0.9	4.7	0.6
D53A IGF-1 (G1S-A70V background) on phage (from UniProt P69168 267-424) (ligand)	1.05	1.2	15.3	1.9
E3A IGF-1 (G1S-A70V background) on phage (from UniProt P69168 267-424) (ligand)	1.05	1.4	278	33.9
E9A IGF-1 (G1S-A70V background) on phage (from UniProt P69168 267-424) (ligand)	1.32	1.8	8.6	1
E46A IGF-1 (G1S-A70V background) on phage (from UniProt P69168 267-424) (ligand)	0.94	1.3	7.9	1
E58A IGF-1 (G1S-A70V background) on phage (from UniProt P69168 267-424) (ligand)	1.03	1.4	11.9	1.5
F49A IGF-1 (G1S-A70V background) on phage (from UniProt P69168 267-424) (ligand)	2.72	3.6	> 1000	> 100
G7A IGF-1 (G1S-A70V background) on phage (from UniProt P69168 267-424) (ligand)	4.58	6.1	> 1000	> 100
G30A IGF-1 (G1S-A70V background) on phage (from UniProt P69168 267-424) (ligand)	0.58	0.8	7.1	0.9
G32A IGF-1 (G1S-A70V background) on phage (from UniProt P69168 267-424) (ligand)	0.76	1	10.9	1.3
G42A IGF-1 (G1S-A70V background) on phage (from UniProt P69168 267-424) (ligand)	0.53	0.7	15.7	1.9
I43A IGF-1 (G1S-A70V background) on phage (from UniProt P69168 267-424) (ligand)	1.17	1.6	31.3	3.8
K65A IGF-1 (G1S-A70V background) on phage (from UniProt P69168 267-424) (ligand)	0.69	0.9	12.4	1.5
K68A IGF-1 (G1S-A70V background) on phage (from UniProt P69168 267-424) (ligand)	0.76	1	10.5	1.3
L5A IGF-1 (G1S-A70V background) on phage (from UniProt P69168 267-424) (ligand)	1.53	2	55.3	6.7
L54A IGF-1 (G1S-A70V background) on phage (from UniProt P69168 267-424) (ligand)	1.83	2.4	23.1	2.8
L57A IGF-1 (G1S-A70V background) on phage (from UniProt P69168 267-424) (ligand)	1.78	2.4	21.8	2.7
L64A IGF-1 (G1S-A70V background) on phage (from UniProt P69168 267-424) (ligand)	0.93	1.2	12.1	1.5
M59A IGF-1 (G1S-A70V background) on phage (from UniProt P69168 267-424) (ligand)	0.74	1	13.1	1.6
P63A IGF-1 (G1S-A70V background) on phage (from UniProt P69168 267-424) (ligand)	> 100	> 100	> 1000	> 100

Substance	IC50 [1] [nM]	relative IC50 (mut/G1S-A70V) [1]	IC50 (human IGFBP-1) [nM]	relative IC50 (mut/G1S-A70V) (human IGFBP-1)
P66A IGF-1 (G1S-A70V background) on phage (from UniProt P69168 267-424) (ligand)	0.57	0.8	9.4	1.1
Q40A IGF-1 (G1S-A70V background) on phage (from UniProt P69168 267-424) (ligand)	0.56	0.7	10.2	1.2
R37A IGF-1 (G1S-A70V background) on phage (from UniProt P69168 267-424) (ligand)	0.75	1	12.3	1.5
R50A IGF-1 (G1S-A70V background) on phage (from UniProt P69168 267-424) (ligand)	0.64	0.9	16.2	2
R55A IGF-1 (G1S-A70V background) on phage (from UniProt P69168 267-424) (ligand)	0.66	0.9	9	1.1
R56A IGF-1 (G1S-A70V background) on phage (from UniProt P69168 267-424) (ligand)	1	1.3	13.1	1.6
S1G IGF-1 (single mutant of G1S-A70V) on phage (from UniProt P69168 267-424) (ligand)	0.99	1.3	11.2	1.4
S33A IGF-1 (G1S-A70V background) on phage (from UniProt P69168 267-424) (ligand)	1.01	1.3	9.1	1.1
S34A IGF-1 (G1S-A70V background) on phage (from UniProt P69168 267-424) (ligand)	1.65	2.2	9.5	1.2
S35A IGF-1 (G1S-A70V background) on phage (from UniProt P69168 267-424) (ligand)	0.47	0.6	11.7	1.4
S51A IGF-1 (G1S-A70V background) on phage (from UniProt P69168 267-424) (ligand)	0.65	0.9	13.4	1.6
S69A IGF-1 (G1S-A70V background) on phage (from UniProt P69168 267-424) (ligand)	0.71	1.2	12.8	1.6
T4A IGF-1 (G1S-A70V background) on phage (from UniProt P69168 267-424) (ligand)	0.8	1.1	19.4	2.4
T29A IGF-1 (G1S-A70V background) on phage (from UniProt P69168 267-424) (ligand)	1.23	1.6	7.3	0.9
T41A IGF-1 (G1S-A70V background) on phage (from UniProt P69168 267-424) (ligand)	0.43	0.6	13.7	1.7
V44A IGF-1 (G1S-A70V background) on phage (from UniProt P69168 267-424) (ligand)	1.03	1.4	18.8	2.3
V70A IGF-1 (single mutant of G1S-A70V) on phage (from UniProt P69168 267-424) (ligand)	0.68	0.9	19.1	2.3
Y31A IGF-1 (G1S-A70V background) on phage (from UniProt P69168 267-424) (ligand)	0.73	1	6.8	0.8
Y60A IGF-1 (G1S-A70V background) on phage (from UniProt P69168 267-424) (ligand)	0.52	0.7	6.6	0.8
